These results are taken from US20230399384A1 (University of Texas, published 2023).

Assay [1] addresses T1, sCoV2-RBD (Fc-tagged RBD of SARS-CoV-2 S protein) (SARS-CoV-2; human, UniProt P0DTC2 319-541). The assay is described as follows: BLI (Octet) blocking of ACE2 binding to captured sCoV2-RBD.
Assay [2] concerns the target T1, sCoV2-RBD (Fc-tagged RBD of SARS-CoV-2 …). The assay is described as follows: ELISA titration on coated sCoV2-RBD. (An ELISA detects its analyte on a solid surface through an enzyme-linked reagent.)
In assay [3] the target is T2, sCoV-RBD (Fc-tagged RBD of SARS-CoV S protein) (SARS-CoV; human, UniProt P59594 306-527). The assay is described as follows: phage ELISA, scFv on phage.
Assay [4] has as its target S protein of SARS-CoV (SARS-CoV, UniProt P59594 14-1195). The assay is described as follows: ELISA, purified IgG1 on coated S protein.
The target of assay [5] is SARS-CoV-2 RBD protein (Sino Biological, Cat: 40592-V08B) (SARS-CoV-2, UniProt P0DTC2 319-541). The experiment in a line: BLI (Octet), mAb on Protein A sensor.
The target in assay [6] is SARS-CoV-2 S protein on live SARS-CoV-2-mNG reporter virus (SARS-CoV-2, UniProt P0DTC2 14-1273). The experiment in a line: cell-based or functional assay.
Assay [7] concerns the target T2, sCoV-RBD (Fc-tagged RBD of SARS-CoV S …). The experiment in a line: ELISA, purified IgG1 on coated RBD protein.

Changes are numbered by the printed parent chain.

B1: CoV2-03 (antibody, V domains shown)
VH: QVQLVESGAEMKKPGASVKVSCKTSGYTFTNSYIHWVRQAPGQGLEWMGWINPISGGTNYAQKFQGRVTMTRDTSINTAYMELSRLRSDDTAVYYCARDRGDYDYGWGTSPFYFDYWGQGTLVTVSS
VL: not shown
As to B1, in assay [1], the IC50 (usually the concentration needed to halve the response being measured) came to 14.8 µg/mL. Also, a half-maximal response in assay [2] (EC50) required 3.35 nM. Moreover, the binding result in assay [3] is recorded as “no binding”; in assay [4], “no binding (tested: one concentration, not printed)”.

B2: CoV2-19 (antibody, V domains shown)
VH: B1 VH with E6Q
VL: AIQLTQSPSSLSASVGDRVTITCRTSHTVNSYLNWYQQEPGKAPKLLIYAASNLQSGVPSRFSGSGSGTDFSLTIHNLQPEDFATYYCQQSYRTPLTFGQGTKVDIK
In the case of B2, the IC50 in assay [1] amounted to 14.5 µg/mL. For the same molecule, the EC50 – broadly, the concentration at which the effect is half-maximal – in assay [2] stood at 5.02 nM. In addition, in assay [5], the affinity, expressed as Kd, was 138 nM; the koff (as a rule, the first-order rate constant of dissociation) worked out at 0.00137 s⁻¹; the kon (as a rule, the rate constant with which the complex forms) was determined as 9870 M⁻¹ s⁻¹. Besides, the binding result in assay [3] is given as “no binding”. Besides, the binding result in assay [4] is “no binding (tested: one concentration, not printed)”.

B3: CoV2-02 (antibody, V domains shown)
VH: B1 VH with L4M, E6Q, T124S
VL: AIQMTQSPSSLSASVGDRVTITCRASQPISKYLNWYQQKPGKAPKLLIYAASSLQSGVPSSFSGSGFGTDFTLTISNLQPEDFATYYCQQSNGIPLTFGGGTKVDIK
In assay [1], B3 registered an IC50 of 17.7 µg/mL. For the same molecule, a half-maximal effect in assay [2] (EC50) was put at 0.47 nM. Besides, in assay [5], binding was characterised by a dissociation constant (Kd) of 7.85 nM, the koff is 0.000499 s⁻¹ and the kon was 63500 M⁻¹ s⁻¹. In addition, the binding result in assay [3] was “no binding”. The binding result in assay [4] is “no binding (tested: one concentration, not printed)”.

B4: CoV2-22 (antibody, V domains shown)
VH: B1 VH with E6Q
VL: DVQMTQSPSSLSASVGDRVTITCRASQSISSYLNWYQQKPGKAPKLLIYGASSLESGVPSRFSGGGSGTDFTLTISSLQPEDFASYYCQQSYSIPFTFGPGTTVDIK
B4 had a half-maximal effective concentration (EC50) in assay [2] of 3.41 nM. In addition, the binding result in assay [3] was “no binding”; in assay [4], “no binding (tested: one concentration, not printed)”.

B5: 07 (antibody, V domains shown)
VH: EVQLVESGGGVFQPGRSLRLSCAASGFTFSDFGMHWVRQAPGKGLEWVAVTSHDGSSKFYADSVKGRFTVSRDNSKNKLYLEMNSLRVEDSAVYYCAKDSDNGYDADFFDYWGQGTLVTVSS
VL: not shown
notes: also called CoV2-07; phage clone 07
Regarding B5, in assay [3], the binding result is listed as “no binding”.

B6: CoV2-24 (antibody, V domains shown)
VH: QVQLHQWGAGLLKPSETLSRTCAVYGGSFSGYYWTWIRQAPGKGLEWIGEINHGGSTRYNPSLESRVSISVDTSKKQFSLELRSVTAADTAIYYCARGLVGGGAFDIWGQGTMVTVSS
VL: NFMLTQPSSVSVAPGQTARITCGGDNIGSTGVHWYQQKPGQAPVLVVYDDTDRPSGIPERFSGSKSGNTAALTISGVEAGDEADFYCQVWDSSGHSYVFGTGTKVTVL
Consider B6, for which, in assay [2], the EC50 amounted to 29.7 nM. Besides, the binding result in assay [3] is reported as “no binding”; in assay [4] it was “no binding (tested: one concentration, not printed)”.

B7: CoV2-05 (antibody, V domains shown)
VH: EVQLVESGGGVARPGGSLRLSCAASGFTFDDYGMSWVRQVPGKGLEWVAGINWNGERIGYADSVKGRFTISRDNAKNSLYLQMNSLRAEDTALYYCARPSGDYVAWYFNLWGRGTLVTVSS
VL: QAALTQPRSVSGSPGQSVTISCTGTGSDVGPYKYVSWYQQHPGKAPKLMIYDVNERPSGVPDRFSGSKSGNTASLTISGLQAEDEADYYCGSYAGNNKWVFGGGTKLTVL
In turn, B7 had an IC50 in assay [1] of 4.18 µg/mL. This molecule also returned an EC50 in assay [2] of 7.82 nM. In addition, in assay [5], binding was put at a Kd of 7.16 nM, the koff was 0.000602 s⁻¹ and the kon was 84100 M⁻¹ s⁻¹. Moreover, the binding result in assay [3] is “no binding”. Also, the binding result in assay [4] was “no binding (tested: one concentration, not printed)”.

B8: CoV2-26 (antibody, V domains shown)
VH: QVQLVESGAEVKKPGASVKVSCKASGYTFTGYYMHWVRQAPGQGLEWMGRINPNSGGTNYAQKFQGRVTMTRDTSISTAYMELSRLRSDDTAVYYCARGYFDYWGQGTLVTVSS
VL: QSALTQPPSASGTPGQRVTISCSGSSSNIGSNSVNWYQQVPGTAPKLLIYANDHRPSGVPDRFSGSKSGTSASLAISGLQSEDEADYYCAAWDNSLKGVVFGGGTKVTVL
As for B8, in assay [6], the “NC50 (neutralisation of reporter SARS-CoV-2, Vero E6 cells)” value (from here on “NC50”) amounted to 0.41 µg/mL.

B9: CoV2-13 (antibody, V domains shown)
VH: QVQLQQSGAEVKKPGSSVKVSCKASGGNFRSHTFSWVRQAPGQGLEWMGEIMPRFGATNYAQKFQGRVTITADESTGTTYMELSSLKSHDTAVYFCAADLGSGRKFDSWAQGTLVSVSS
VL: NIQMTQSPSSLSASVGDRVTITCRASQGIGSDLGWYQQRPGKAPKRLIYAASSLQSGVPSRFSGSGSGTEFTLTISSLQPEDFATYYCLQHNSYPLTFGQGTKVEIK
Take B9: the IC50 in assay [1] worked out at 2.29 µg/mL. The molecule further yielded a concentration giving a half-maximal response (EC50) in assay [2] of 0.17 nM. In assay [5], the Kd (as a rule, a measure of binding affinity in units of concentration) is 50.7 nM; the koff came to 0.00103 s⁻¹; the kon is 20300 M⁻¹ s⁻¹.

B10: CoV2-23 (antibody, V domains shown)
VH: QVQLVESGGGLVQPGRSLRLSCAASGFTFDDYAMHWVRQAPGKGLEWVSGISWNSGSIGYADSVKGRFTISRDNAKNSLYLQMNSLRAEDTALYYCAKDMDIWFGGGLDYWGQGTLVSVSS
VL: DVQMTQSPSSVSASVGDRVTITCRASEGIGNWLAWYQQKPGKAPKLLIYEASSLQSGVPSRFSGSGSGADFTLTISSLQPEDFGTYYCLQANSFPITFGRGTKLEIK
Molecule B10 yielded an EC50 in assay [2] of 1.04 nM. In other words, the single-digit nanomolar range.

B11: CoV2-09 (antibody, V domains shown)
VH: QVQLHQWGAGLLKPSETLSRTCAVYGGSFSGYYWTWIRQAPGKGLEWIGEINHGGSTRYNPSLESRVSISVDTSKKQFSLELRSVTAADTAIYYCARGYDTNWYGDGYNWFDPWDRGTLVTVSS
VL: QSALTQDPSVSVALGQTVRITCQGDSLRGSFASWYRQKPGQAPVLVIFGINNRPSGVPDRFSGSSSGNTASLTITGAQAEDEADYYCNSRESNSNRILFGGGTKVTVL
As to B11, the “NC50” value in assay [6] is 0.66 µg/mL.

B12: CoV2-16 (antibody, V domains shown)
VH: B11 VH
VL: QAVVTQPPSVSGTPGQRVTISCSGSSSSIGSNTVHWYQHLPGTAPKLLMYNNNERPSGVPARFSGSKSGTSASLVITGLQADDEAEYYCQSYDTGLSGHVFGSGTELTVL
Take B12: in assay [6], the “NC50” value was found to be 0.82 µg/mL.

B13: CoV2-34 (antibody, V domains shown)
VH: B11 VH with Y33S, I51V, S56K, R58N, V67L, K76N, I92V, D115G, R116Q, T121S
VL: DIQMTQSPSSLSASVGDRVTITCRASQKIDNFLNWYQQKPGKAPKLLIHGASNLQGGVSSRFSGSRSGTDFTLTITNLQPEDFATYYCQQSYNTPITFGQGTRLEIK
On to B13, for which the binding result in assay [7] is reported as “no binding (tested: one concentration, not printed)”; in assay [4], “no binding (tested: one concentration, not printed)”. Also, the half-maximal effective concentration (EC50) in assay [2] was 6.67 nM.

B14: CoV2-31 (antibody, V domains shown)
VH: B11 VH with H5Q, Y33S, R58N, I92V, D115G, R116Q
VL: QAVVTQPLSVSVALGQTAKIPCGGNNIGRKSVHWYQQKPGQAPVLVIYRDNNRPSGIPERFSGSNSGNTATLTISRAQAGDEADYYCQVWDSNTGVFGTGTKVTVL
As to B14, the binding result in assay [7] is “no binding (tested: one concentration, not printed)”; in assay [4], “no binding (tested: one concentration, not printed)”. In assay [2], a half-maximal effect (EC50) was put at 58.1 nM.

B15: CoV2-14 (antibody, V domains shown)
VH: EVQLQQSGPGLVKPSQTLSLTCAISGDSVSSNSAAWNWIRQSPSRGLEWLGRTYYRSKWYNDYAVSVKSRITINPDTSKNQFSLQLNSVTPEDTAVYYCAREEQQLVHDYYYYGMDVWGQGTMVTVSS
VL: QAVVTQPASVSGSPGQSITISCTGTSSDIGAYNYISWYQQHPGKAPKLIIYEVSNRPSGISYRFSGSKSGNTASLTISGLQAEDEANYYCSSYAGSISFGGGTKVTVL
Take B15: the “NC50” value in assay [6] stood at 0.46 µg/mL.

B16: CoV2-06 (antibody, V domains shown)
VH: QVELQESGPGLVKPSGTLSLTCAVSGGSISSNNWWTWVRQPPGKGLEWIGEIHHSGGTNYNPSLKSRVTMSVDKSKNQFSLNLYSVTAADTAVYYCTRDRAGGTYSGFDFWGQGTLVTVSS
VL: QAVVTQPASVSGSPGQSITISCTGTSSDVGGYNYVSWYQQHPGKAPKLMIYDVSNRPSGVSNRFSGSKSGNTASLTISGLQAEDEADYYCSSYTSSSTVVFGGGTKVTVL
As for B16, the “NC50” value in assay [6] turned out to be 0.15 µg/mL.

B17: CoV2-28 (antibody, V domains shown)
VH: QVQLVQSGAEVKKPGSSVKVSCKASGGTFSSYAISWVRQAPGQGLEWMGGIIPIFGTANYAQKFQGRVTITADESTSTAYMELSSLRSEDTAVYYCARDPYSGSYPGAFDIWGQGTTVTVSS
VL: B16 VL with S91N, S95R, V99S, G103T, K106Q, V107L
Regarding B17, the EC50 in assay [2] came to 130 nM. Also, the binding result in assay [3] was “no binding”; in assay [4] it was “no binding (tested: one concentration, not printed)”.
